Results taken from PMC9867676.

Tests used:
[1] = system: T1, RinA (Staphylococcus aureus NCTC8325 (phage phi11)), ORF:ad3d0fcb; experiment: EMSA; settings: 50 mM Tris-HCl, 300 mM NaCl, pH 8.0 ([…], room temperature
T1 sequence: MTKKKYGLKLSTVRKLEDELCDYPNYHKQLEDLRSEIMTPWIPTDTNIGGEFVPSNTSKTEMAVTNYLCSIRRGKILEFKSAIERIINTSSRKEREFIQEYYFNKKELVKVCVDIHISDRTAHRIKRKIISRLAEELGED

[2] = system: T1, RinA (Staphylococcus aureus NCTC8325 (phage phi11)), ORF:ad3d0fcb; experiment: competition; settings: 50 mM Tris-HCl, 300 mM NaCl, pH 8.0 ([…], room temperature

Sequence | binding [1] | binding [2]
CTAAACCAAATGCTAACCCAGAAATACAATCACTGTGTCTAATGAATAATTTGTTTTATAAACACTTTTTTGTTTACTTCTCATTTTTAATTAGTTATAATTAACTAAATAATAGAGCATTAAATATATTTAATAAAACTTATTTAATGCAAAATTATGACTAACATATCTATAATAAATAAAGATTAGATATCAATATATTATCGGGCAAATGTATCGAGCAAGATGCATCAAATAGGGAGGTTTTAAACATGGC (double strand) [sarA promoter fragment (FAM)] | binds | 
CTAAACCAAATGCTAACCCAGAAATACAATCACTGTGTCTAATGAATAATTTGTTTTATAAACACTTTTTTGTTTACTTCTCATTTTTAATTAGTTATAATTAACTAAATAATAGAGCATTAAATATATTTAATAAAACTTATTTAATGCAAAATTATGACTAACATATCTATAATAAATAAAGATTAGATATCAATATATTATCGGGCAAATGTATCGAGCAAGATGCATCAAATAGGGAGGTTTTAAACATGGC (double strand) [sarA promoter fragment (unlabeled)] |  | binds
